From patent publication US20120114667A1
Each block holds one substance with its values, some of them ahead of it.

How the values were obtained:
[1] = molecular target: β1 integrin chain on HT29 cells (α5 null line) (human) (UniProt P05556); experiment: FACS on HT29 cells, isotype control
Macaque α5β1 (Macaque) = experiment: FACS on macaque PBMC, isotype control
[2] = molecular target: β1 integrin chain on HT29 cells (α5 null line) (human) (UniProt P05556); experiment: FACS on HT29 cells (no α5, β1 present), control antibody to α5β1
[3] = molecular target: αv integrin chain on HT29 cells (human) (UniProt P06756); experiment: FACS on HT29 cells, positive control
Chain of αv integrin chain on HT29 cells (human) (P06756 31-1048): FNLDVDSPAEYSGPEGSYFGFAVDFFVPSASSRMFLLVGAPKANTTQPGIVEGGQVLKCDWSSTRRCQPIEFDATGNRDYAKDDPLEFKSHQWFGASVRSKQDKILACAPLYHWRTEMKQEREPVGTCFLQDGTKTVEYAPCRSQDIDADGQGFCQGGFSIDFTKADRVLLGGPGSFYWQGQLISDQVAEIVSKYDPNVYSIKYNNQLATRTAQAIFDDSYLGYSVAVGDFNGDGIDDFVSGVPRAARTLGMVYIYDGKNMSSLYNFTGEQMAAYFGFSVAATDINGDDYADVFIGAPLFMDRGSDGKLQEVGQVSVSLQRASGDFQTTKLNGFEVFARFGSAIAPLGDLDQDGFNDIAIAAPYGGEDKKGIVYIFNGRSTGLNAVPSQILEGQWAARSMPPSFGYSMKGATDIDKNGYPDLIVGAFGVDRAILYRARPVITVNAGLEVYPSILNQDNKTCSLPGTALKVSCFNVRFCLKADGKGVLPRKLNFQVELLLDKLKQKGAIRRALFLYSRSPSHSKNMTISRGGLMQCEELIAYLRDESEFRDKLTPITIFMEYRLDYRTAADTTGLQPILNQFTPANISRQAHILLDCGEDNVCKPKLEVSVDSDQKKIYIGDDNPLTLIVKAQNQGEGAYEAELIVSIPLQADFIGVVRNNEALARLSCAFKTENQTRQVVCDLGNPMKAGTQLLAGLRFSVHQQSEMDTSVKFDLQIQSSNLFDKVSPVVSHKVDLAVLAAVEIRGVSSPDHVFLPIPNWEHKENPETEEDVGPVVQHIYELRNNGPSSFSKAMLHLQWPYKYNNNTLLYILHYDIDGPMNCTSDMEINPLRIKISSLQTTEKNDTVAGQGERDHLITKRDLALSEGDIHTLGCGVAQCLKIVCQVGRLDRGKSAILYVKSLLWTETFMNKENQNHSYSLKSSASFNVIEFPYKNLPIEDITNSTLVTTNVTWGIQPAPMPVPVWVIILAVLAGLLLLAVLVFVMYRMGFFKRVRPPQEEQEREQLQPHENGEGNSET

[4] = molecular target: avb3 and avb5 integrins on A375M cells; experiment: cell-based or functional assay
[5] = molecular target: macaque αV integrin chain on T cells (Macaque); experiment: FACS on macaque PBMC, control antibody
[6] = molecular target: β1 integrin chain on HT29 cells (α5 null line) (human) (UniProt P05556); experiment: FACS on HT29 cells, positive control
[7] = molecular target: macaque β1 integrin chain on T cells (Macaque); experiment: FACS on macaque PBMC, control antibody
[8] = molecular target: αvβ6 integrin on HT29 cells (human) (UniProt P06756); experiment: FACS on HT29 cells, positive control
Chain of αvβ6 integrin on HT29 cells (human) (P06756 31-1048, chain 1 of 2): as the sequence (P06756 31-1048) above
Chain of αvβ6 integrin on HT29 cells (human) (P18564 22-788, chain 2 of 2, further chain): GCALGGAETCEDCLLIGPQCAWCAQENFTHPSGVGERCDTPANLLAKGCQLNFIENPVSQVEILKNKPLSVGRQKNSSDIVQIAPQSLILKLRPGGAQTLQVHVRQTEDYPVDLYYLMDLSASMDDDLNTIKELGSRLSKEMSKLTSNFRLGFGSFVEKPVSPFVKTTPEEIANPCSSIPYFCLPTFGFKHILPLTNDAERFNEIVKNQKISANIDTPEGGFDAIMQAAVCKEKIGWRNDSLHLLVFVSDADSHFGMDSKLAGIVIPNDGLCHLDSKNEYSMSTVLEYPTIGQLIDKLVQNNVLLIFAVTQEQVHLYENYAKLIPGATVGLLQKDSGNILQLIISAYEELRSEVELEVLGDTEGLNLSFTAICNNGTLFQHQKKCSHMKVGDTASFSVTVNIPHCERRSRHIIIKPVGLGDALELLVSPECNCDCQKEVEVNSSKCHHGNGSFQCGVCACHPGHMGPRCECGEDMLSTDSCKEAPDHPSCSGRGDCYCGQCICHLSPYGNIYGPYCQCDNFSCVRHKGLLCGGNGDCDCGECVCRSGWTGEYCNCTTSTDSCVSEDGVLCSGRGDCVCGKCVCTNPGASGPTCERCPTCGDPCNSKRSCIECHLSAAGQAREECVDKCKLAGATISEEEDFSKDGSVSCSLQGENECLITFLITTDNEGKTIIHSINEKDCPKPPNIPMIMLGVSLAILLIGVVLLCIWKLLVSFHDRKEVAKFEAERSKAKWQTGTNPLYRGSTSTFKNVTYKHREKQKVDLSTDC

[9] = molecular target: human α5β1 integrin (human) (UniProt P08648); experiment: FACS on human α5β1-transfected against untransfected 300.19 cells, negative control
Chain of human α5β1 integrin (human) (P08648 42-1049, chain 1 of 2): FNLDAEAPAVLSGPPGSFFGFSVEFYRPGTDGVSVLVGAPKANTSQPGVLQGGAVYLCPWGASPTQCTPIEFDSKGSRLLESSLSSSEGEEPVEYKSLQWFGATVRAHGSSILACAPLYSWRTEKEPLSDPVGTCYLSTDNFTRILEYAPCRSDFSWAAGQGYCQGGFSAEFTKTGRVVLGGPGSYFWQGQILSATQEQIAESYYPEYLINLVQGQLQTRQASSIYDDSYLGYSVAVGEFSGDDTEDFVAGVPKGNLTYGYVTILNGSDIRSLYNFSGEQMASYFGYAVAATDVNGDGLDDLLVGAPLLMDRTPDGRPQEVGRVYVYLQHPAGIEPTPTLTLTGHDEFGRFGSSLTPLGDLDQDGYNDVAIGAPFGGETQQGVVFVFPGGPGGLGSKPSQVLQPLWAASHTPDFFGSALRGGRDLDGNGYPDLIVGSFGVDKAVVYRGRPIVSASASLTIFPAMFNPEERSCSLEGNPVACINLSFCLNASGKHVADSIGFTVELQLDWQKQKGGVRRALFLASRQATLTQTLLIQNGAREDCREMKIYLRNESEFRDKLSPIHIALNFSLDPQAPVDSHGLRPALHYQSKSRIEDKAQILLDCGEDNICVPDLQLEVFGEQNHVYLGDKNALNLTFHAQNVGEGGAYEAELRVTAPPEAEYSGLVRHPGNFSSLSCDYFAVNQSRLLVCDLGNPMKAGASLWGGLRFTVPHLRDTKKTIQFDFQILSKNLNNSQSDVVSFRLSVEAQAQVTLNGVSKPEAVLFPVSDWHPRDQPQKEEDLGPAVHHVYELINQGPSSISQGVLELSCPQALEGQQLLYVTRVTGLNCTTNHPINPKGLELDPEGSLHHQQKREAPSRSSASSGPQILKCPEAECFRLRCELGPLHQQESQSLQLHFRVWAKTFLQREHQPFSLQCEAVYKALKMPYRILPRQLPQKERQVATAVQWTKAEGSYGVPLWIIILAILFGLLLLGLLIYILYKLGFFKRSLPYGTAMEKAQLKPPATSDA
Chain of human α5β1 integrin (human) (P05556 21-798, chain 2 of 2, further chain): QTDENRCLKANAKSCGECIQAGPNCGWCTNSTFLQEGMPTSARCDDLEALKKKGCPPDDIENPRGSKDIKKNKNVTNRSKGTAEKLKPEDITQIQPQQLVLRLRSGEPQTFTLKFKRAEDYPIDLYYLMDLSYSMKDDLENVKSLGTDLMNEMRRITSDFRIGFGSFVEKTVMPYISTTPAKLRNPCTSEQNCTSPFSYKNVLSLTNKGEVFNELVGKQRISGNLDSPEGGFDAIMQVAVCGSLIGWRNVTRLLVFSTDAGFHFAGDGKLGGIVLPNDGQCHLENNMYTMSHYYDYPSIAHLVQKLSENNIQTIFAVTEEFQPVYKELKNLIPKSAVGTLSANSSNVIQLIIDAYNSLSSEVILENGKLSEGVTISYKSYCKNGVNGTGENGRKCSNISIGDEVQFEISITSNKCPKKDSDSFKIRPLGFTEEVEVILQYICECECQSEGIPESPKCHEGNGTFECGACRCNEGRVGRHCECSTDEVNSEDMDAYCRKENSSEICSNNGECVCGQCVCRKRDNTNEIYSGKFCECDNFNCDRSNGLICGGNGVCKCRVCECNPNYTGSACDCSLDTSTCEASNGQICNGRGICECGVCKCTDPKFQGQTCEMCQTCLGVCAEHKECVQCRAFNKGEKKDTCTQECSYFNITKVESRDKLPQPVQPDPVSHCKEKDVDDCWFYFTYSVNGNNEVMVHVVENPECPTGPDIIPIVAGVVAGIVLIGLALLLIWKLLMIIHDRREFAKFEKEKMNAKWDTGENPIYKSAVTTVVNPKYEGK

[10] = molecular target: human α5β1 integrin (human) (UniProt P08648); experiment: FACS on human α5β1-transfected 300.19 cells, negative control

Chain of β1 integrin chain on HT29 cells (α5 null line) (human) (P05556 21-798): as the sequence (P05556 21-798, chain 2 of 2, further chain) above

Substance: Mouse IgG2a (antibody)
Binding Geomean [1]: 10.2

Substance: mAb 1969 (antibody)
Binding Geomean [2]: 2.69

Substance: Human IgG2 (antibody)
Binding Geomean [1]: 2.84 | Ratio (α5β1 expressing cells / parental cells) [9]: 0.8 | X Geo Mean [10]: 12

Substance: Mouse IgG1 (antibody)
Geo Mean on Macaque T-cells IgG detection (Macaque α5β1 (Macaque)): 2 | Binding Geomean [1]: 2.55 | Ratio (α5β1 expressing cells / parental cells) [9]: 0.9 | X Geo Mean [10]: 14.9

Second part, the substance after the results:

Geo Mean on Macaque T-cells IgG detection (Macaque α5β1 (Macaque)): 3
Substance: Human IgG2/4

Binding Geomean [3]: 294 | Osteopontin Adhesion (% inhibition) at 5 ug/ml, A375M cells [4]: 97% | Vitronectin Adhesion (% inhibition) at 5 ug/ml, A375M cells [4]: 96% | Geo Mean on Macaque T-cells IgG detection [5]: 3
Substance: L230 (antibody)

Binding Geomean [6]: 362 | Geo Mean on Macaque T-cells IgG detection [7]: 141
Substance: 4b4 anti beta1 (antibody)

Binding Geomean [8]: 39.2
Substance: MAB2077Z avb6 (antibody)

Binding Geomean [1]: 3.2
Substance: Human IgG4 (antibody)
